# Laboratory results reported in patent US20260274928A1.
# B1: S2V29-v37.2 (antibody, V domains shown)
# VH: EVQLVESGGSVVQPGRALRLSCAASGITFSSFGMYWVRQAPGKGLEWLGYIAYDGSDTYYADSVKGRFTISRDNSKNTLYLQMNSLRIEDTAVYYCAKDYYPLLSYYYGLDVWGQGTTVTVSS
# VL: QSVLTQPRSVSGSPGQSVTISCTGTSSDVGAYNYVSWYQQHPGKAPKFMIYDVDQRPSGVPDRFSGSKSGNTASLIISGLQAEDEADYYCSSYAGSYIWVFGGGTQLTVL
# Biological target: 25-strain panel of pre- and post-Omicron VSV-based SARS-CoV-2 S pseudotyped viruses
# Assay: cell-based or functional assay
binder,measurement,value
B1,"IC50, pseudovirus neutralization",1.9 to 31.2 ng/mL
same,"median IC50, pseudovirus neutralization",8.2 ng/mL
